Experimental data published in article PMC3477848 (Biochemistry, 2012).
Read-outs that look alike come from different tables or passages of the source.

Tests used:
Assay in all cases: fluorescence anisotropy
[1] = target: T1, Dpo4 (SsoDpo4, Y-family DNA polymerase) (Sulfolobus solfataricus, UniProt Q97W02 1-352)
T1 sequence: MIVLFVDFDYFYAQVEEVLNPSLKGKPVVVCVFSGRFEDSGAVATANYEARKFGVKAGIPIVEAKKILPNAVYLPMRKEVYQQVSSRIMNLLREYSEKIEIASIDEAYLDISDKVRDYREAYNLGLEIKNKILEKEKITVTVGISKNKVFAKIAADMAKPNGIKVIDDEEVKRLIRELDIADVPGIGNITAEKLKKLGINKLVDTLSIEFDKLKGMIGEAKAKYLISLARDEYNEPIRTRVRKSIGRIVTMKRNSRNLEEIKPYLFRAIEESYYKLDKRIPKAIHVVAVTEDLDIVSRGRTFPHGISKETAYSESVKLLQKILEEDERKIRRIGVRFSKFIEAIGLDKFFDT

[2] = target: T2, Dpo1 exo- (SsoDpo1, B-family DNA polymerase) (Sulfolobus solfataricus, UniProt P26811 1-882, D231A;D318A)
T2 sequence: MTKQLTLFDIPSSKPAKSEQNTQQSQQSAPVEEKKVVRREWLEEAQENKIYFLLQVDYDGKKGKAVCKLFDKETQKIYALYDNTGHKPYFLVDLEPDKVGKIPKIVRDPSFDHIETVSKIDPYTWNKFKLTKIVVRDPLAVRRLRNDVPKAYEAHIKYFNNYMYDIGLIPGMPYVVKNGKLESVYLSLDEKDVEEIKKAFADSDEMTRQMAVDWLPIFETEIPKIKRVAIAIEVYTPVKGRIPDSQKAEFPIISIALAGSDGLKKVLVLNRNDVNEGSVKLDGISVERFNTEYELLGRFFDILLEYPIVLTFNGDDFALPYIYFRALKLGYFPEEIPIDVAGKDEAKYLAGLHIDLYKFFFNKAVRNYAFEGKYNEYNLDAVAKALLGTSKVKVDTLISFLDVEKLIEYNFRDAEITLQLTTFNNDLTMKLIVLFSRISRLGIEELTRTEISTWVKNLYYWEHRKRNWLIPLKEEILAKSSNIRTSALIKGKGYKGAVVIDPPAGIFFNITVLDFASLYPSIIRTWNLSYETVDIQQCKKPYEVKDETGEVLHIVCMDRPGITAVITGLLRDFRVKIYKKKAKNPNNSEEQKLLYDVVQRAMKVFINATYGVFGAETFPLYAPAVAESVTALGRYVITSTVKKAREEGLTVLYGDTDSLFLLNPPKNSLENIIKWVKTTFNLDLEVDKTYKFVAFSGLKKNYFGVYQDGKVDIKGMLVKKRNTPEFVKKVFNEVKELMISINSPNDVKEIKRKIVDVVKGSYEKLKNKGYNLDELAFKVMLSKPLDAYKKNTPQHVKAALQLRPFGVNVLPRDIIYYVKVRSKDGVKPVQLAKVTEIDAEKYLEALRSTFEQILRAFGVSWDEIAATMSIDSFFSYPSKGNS

[3] = target: T1, Dpo4 (SsoDpo4, Y-family DNA polymerase); remark: listed apart in the source
[4] = target: T2, Dpo1 exo- (SsoDpo1, B-family DNA …); remark: listed apart in the source
[5] = target: T1, Dpo4 (SsoDpo4, Y-family DNA polymerase); remark: listed apart in the source
[6] = target: T2, Dpo1 exo- (SsoDpo1, B-family DNA …); remark: listed apart in the source
[7] = target: T2, Dpo1 exo- (SsoDpo1, B-family DNA …); remark: listed apart in the source
[8] = target: T1, Dpo4 (SsoDpo4, Y-family DNA polymerase); remark: listed apart in the source

Binder: TTTTTTTTTTCCCGGGCCGGCGTTTCGCCGGCCCGGG (structured_DNA) [37-nt hairpin primer-template, 5'-Cy3]
- Kd [1]: 329 ± 107 nM
- Kd [2]: 208 ± 57 nM
- Kd [3]: 444 ± 115 nM
- Kd [4]: 208 ± 22 nM
- Kd [5]: 435 ± 116 nM
- Kd [6]: 322 ± 23 nM
- Kd [7]: 113 ± 32 nM
- Kd [8]: 674 ± 80 nM
